# Data taken from US20240026407A1, “MODIFICATION OF SAPONINS” (GLAXOSMITHKLINE BIOLOGICALS SA, priority 2020, published 2024).
# B1: 1061 (protein, listed as Rhizobium leguminosarum)
# chain: MNFQPAAISGNLVSRTWSGDMIAPLSDGGQGTAASFVSKTFEHDGTKLPAELFISALGLYRCFINGVRVGSDLLTPGWTNYDDRLAYQRYDVSNLLKPGLNRIEIWLADGWYRSPLMWGAQAIPNCWGDRIGAIADLIGADGTVLSTDTTWRSGVLPILRSGIYFGEIYDARQENCVETHGTEKLAFDKALLVAHETAAVRELRPLTAVENWTDDEGRTIYDFGQNAGGYIRYTVRGTAGAEVRVEHSEVLGPDRHFDNRNYRTAAAHTVYTLRGNGDETYAPHFTFHGFRYARVTIKGDAKILAIASIPISSVPEPAGGFTSGNALVNRLVENTIWSQRANFVEVPTDCPQRDERLGWTGDAQVFAATACWLSDSQSFLRKYLRDVMADQREDGAVSHFSPDPTRLHPANFPGYAGSTGWGDAIVVIPWVLYTHYGDRAVLSECLESMVRWVDFVWSISDGPLVRPPSRWGDRGFTFGDWLQPVGDNRKPRPTIADDCAATLYHFISTDLLARIAATLGEHALEEKMKQRANEIRRAFTNEFITPAGRLAHNDQTSYALAFLHDLIPAEHRQAAQQHFRQVIIDADYKIGTGFIGTPALLPALTKLGMDDLAEKVFLQEDVPGWLYQVSKGATTIWERWDSMAPDGTIYEPDMNSYNHYAYGAVCQWLFESVAGISPSPSAPGFAEVIVDPAPIPSLSPVSAYHDISQGRIEAGWHCDGKKVTYVLTLPEGCIGWFRPGKRHQNPSLNGEPVVEEAVLAPGTHRLVFSLPNS
# B2: 1079 (protein, listed as Lunatimonas lonarensis)
# chain: MSMIRILSLLFLWMLSFSLVAQSTFSLQKLKVDHQENPLGIETASPVFSWQMQVAGSERGVYQKAYRIQVSDSHGALIWDSQQVSSDRSVGIRYQGEKLRPITAYTWSLTVWNQSDHSQTEIGKFETGWMDSPNAWKNAEWIGGDSEDLVLYAHALAVFKAGVTIQLDQESKSTRAAFLLGGNDVRLMKKNLNILQMESGRDGSYVGFELDISQVNGTEEGLALLHAYRVGYHADDQVGTPFHSMPIPQRLIHEGNKYEPHDLFLECNLGIFQVYLNGTENENKISPNDPSKPSYVAQGLNLNPMGEGGNYINFPLLGDIGFKTDSGQLATFSNLTISNYRRPGNVLFSEAESTISIFDKHPNIRAIAGRYQVGTDNKAVLALEDPSRNAPPMLRTTFTTQAKKIKKARIYATARGIYEMYLNGKRVGQDYFNPGLTQYNKNHQYQIYEVTDALESNAANAWGAWLSEGWWSGHITFSGGNWNFFGDRQSFLGTLLIEYEDGTVQEINTQPQSWKLFTDGPILNGSFFQGEVYDANKESVLTGWSLAQFDDSSWKSAQNVPLEGTTYTGPMTNGTLDYKQLTLSAQNDPTPTIIRRLKAVSMEEVRPGVFVYDMGQNMVGVPKITLSHGHQGDTVILRFAEVKYPDLPAYHPHSGMIMMENIRAALTHDIYIRKGGDEVIQPRFTFHGYRYVEITGIKNAPPLNAVEGLVISSVDSIRSSYTTSNQDVNKLWENITWSMLGNFLSIPTDTPARNERMGWSGDINVFARTSTYLGEVLPFLKRHMMAMRDLQAANGKFADVTPVGNGFGGTLWGSAGIVLPWELFLQYGDTTILEENYEAMKAYLAFLETREDKDSGVQMEGPLGDWLSPEVNKNDNTQFFTAYQAYGYGILHQVAQILGKPTEAATFQAKFASRKKFLMDTYFDARTGKSIHSGVSTQGRGGSTAPGTQKGDPIDTQASYAIPLYLEVIDGDLQEKVLANLIATLARENVDDMGILRPAYSLMTGFIATAAINEAISRYGDPVHAYRLLQQTSYPSWLYSVKNGATTIWERLNSYTVEDGFGGNNSMNSFNHYSFGAVGAWMYMYSLGIQRHPEIPGFKKFRLQPQPDPDGKMTWAKGHYDSMYGRIHSEWKRGVDSWEYKATVPPNTSAVLVLPVKDLERVSEGGKMLTEVLGITLISRENGYITMELSSGSYTFSIE
# B3: 1027 (protein, listed as Dictyoglomus thermophilum)
# chain: MKSSNIYSPFDLKCEFTTNPLGVDKKNPIFSWKLRHLEKNEKQTAYQVIVSSSLETINDNIGDVWDTGKVLSSEQVIKYEGKELEPCKVYFWKVRWWDSKDQESPFSVVNTFETGLMNEENWKAKWITKKEHKYEVYSPDGAPFGLNYTIAYAPMFRKSFSISKKIKRARVYIAGLGLYELYINGERIGDRVLDPGQTDYKKRVLYTVYDVSKNIRDGKNAIGVILGNGRYVKEYGYDFPKLIIQVLVEYEDDSIEWIVSDESWKTTYGPITLNSLYHGEIYDGRKEIKGWNLPDFDDSTWENAILAEPPGGKLYSEIYPPIRITKTIKPIKMWSPEPGTYVYDFGQNYTGWIKIKVRTNESGKEIRIRHAELTYEDGTLNYSTNRTALATDVYITKGEGYEEYEPRFTYHGFRYVEILGYPGVPTLEDIEGKVVHTAVESNGEFICSNELINKIHHNIIWGQLSNLMSIPTDCPQRDERMGWMGDAQLSAEEAIFNFDMIGFYRKYLNDIRDAQKENGSLSDVIPPYWSIYPGDPAWSTAYITIAWYLYQYYGDKYVLEEHYEGFKKYVEFLKKLAPDYIVSFYKYGDWCQPGTVRPKDNSGELTSTFYFYHDVITLSKIAKLLGKEADYKYYSELADKIKSAFNKKFLKEKAYASIPTELSEENVKALLEKYPEDIKDFLRQQFTILSSLGMFTSQTLNTLPLYLNLVPEDKVQDVLKTLLEDIIIRHDYHLDTGIVATRYIFDVLTSYGYDEVAYKIVNQKTYPSFGYMIEEGATTLWERWEKLTSTGMNSHNHIMFGSVDAWFYRVIAGVRVGEPGWNKIIFEPHPVGDLKYAKARLNTIKGEVEINWQKTENIFSMRISVPVNSEGEVHVPKLFERFVVKEGDNIIYEKKGDLEENEKYIVIRVGSGSYNFYMEKI
# B4: 1039 (protein, listed as Lactobacillus acidophilus)
# chain: MKITNILVNQMEHPLGFDLSNLRITFELTEMENIIGNVYKNISVGKVESEQPIYFEPDELYENNAFKINMELEPRTKYWVKIGVRNDNEVTSSNTWFETGKMDEKFYGKWITNKKDVENTLFKKDFELANKQIKSARLYSTTLGVYEVDLNGVKVGNEFLAPGFTNYDKIVQLQTYDVTKLVTKNSNNELVFSVGDGWYKGNLGFDGGQTNIYGDKKSILAELHVTYTDNSEQVISTDSSWLTTEGKIIKSSIYYGEDIDDTKDILDWSSVVILNKSTSIVRDRLSLPIMKKEVLKVKEIIHTPKNEIVLDFGQNHAGWPVFINRLARGKKITLQMGEILQDGNFYNKNLRLARAAFTYISDGEEKLIRPHFTYFGFRYVKISGVTDVNKDDFESWVLYSDLKQTGFIKTNNDKVNRLFKNVIWGQKSNFMDVPTDCPQRDERLGWTGDAEIFAPTASFNMNTYEFYKKYAKDMLVEQEDNKGMLPIIVPSLKQKSTGMAIWSDAATIIPWVTYRFFDDLGVLKQNYSQMKNWVDWITQNTKTKYLWIGQMQLGDWLSLDNGANPQGKTNEDYIASIYYFVSASIVSKAARLLHYDMESDYYENLARNIKTNILNEFVTEKGRIAIDTQTALVLALHFGLVHDYQKSQVVADLVKKVKDDNKHLQTGFVGTPFLLSVLSNNNQHHLAMDIFMQEDCPSWLYEVNMGATTIWERWNSVLPDGKMNPEGMNSLNHYSFGAVMMWMYQCVVGLNQFDAGFKEIYFAPKFDCRLKDIYSEFDSTYGKIKVEYHLETNEKHLIRMNLVIPFGVKMKVKLPRSAKYLINGKEKIGIVKLEYGKYDISYIPTKSYLNYYDLNSKLVDILDNNDLVKRIDQIDEKILQKVKRMGNTRSIFINKKIDELLDFEEISQEEKNQLVDILHKTIFIKLNLF
# Test: Experiment 6-1: screening of rhamnosidases for derhamnosylation of saponins in treated bark extract (2%), desglucosyl-QS-17 2134 to QS-21 1988 (PAR %)
# Type: biochemical, Quillaja saponaria
# Details: TBE 2%, pH 7.5, 30 degC, 18 h; TIC peak area ratio percent, LCMS/MS; negative controls 2.719, 2.158
row,Molecule,Peak75 (PAR %)
1,B1,0.230%
2,B2,0.247%
3,B3,0.094%
4,B4,0.683%

# Test: Experiment 6-3: screening of rhamnosidases for derhamnosylation of saponins in crude bark extract (80%), relative % of Left, Middle and Right Peak by UV HPLC
# Type: biochemical, Quillaja saponaria
# Details: CBE 80%, pH 7.4, 30 degC, 19.5 h, mainly QS-17 family, negative control 27%
# Experimental: Selected variants were expressed and lysed as in the method of experiment 6-1.
# Crude bark extract (CBE) solution was adjusted to pH 7.4 by addition of NaOH (2M). 20 uL clarified lysate was transferred into fresh 96 well PCR plates. 80 uL CBE solution (pH 7.4) was added to each well of lysate to a final concentration of 80%. Plates were incubated at 30 degC with shaking for 19.5 h.
# Quenched with 100 uL MeCN+2% AcOH and shaken at room temperature for 10 mins prior to centrifugation (10 min, 4 degC) to remove particulates. Samples were analysed by UV HPLC using method of Experiment 4-4.
# Three key peaks of interest are apparent using this chromatography: Left Peak (retention time approximately 2.30-2.35 min) comprising mainly QS-17 family components; Middle Peak (retention time approximately 2.37-2.42 min) comprising mainly QS-18 family components and desglucosyl-QS-17 family components; and Right Peak (retention time approximately 2.44-2.50 min) comprising mainly QS-21 family components. Peak identity was supported by MS/MS.
# Enzyme mediated hydrolysis of the alpha-O-rhamnosylation at the C2 position of the arabinofuranose moiety of QS-17 family components leads to a decrease in Left Peak and an increase in Middle Peak due to formation of QS-18 family components. Enzyme mediated hydrolysis of the alpha-O-rhamnosylation at the C2 position of the arabinofuranose moiety of desglucosyl-QS-17 family components leads to a decrease in Middle Peak and an increase in Right Peak due to formation of QS-21 family components.
# The relative percentage of each peak was determined. A decrease in Left Peak and a concomitant increase in Middle Peak and Right Peak is observed for enzymes active under these conditions.
row,Molecule,Left Peak
1,B1,26%
2,B2,25%
3,B3,26%
4,B4,25%

# Same assay, conditions: CBE 80%, pH 7.4, 30 degC, 19.5 h, mainly QS-18 and desglucosyl-QS-17 family, negative control 48%
row,Molecule,Middle Peak
1,B1,48%
2,B2,48%
3,B3,48%
4,B4,48%

# Same assay, conditions: CBE 80%, pH 7.4, 30 degC, 19.5 h, mainly QS-21 family, negative control 26%
row,Molecule,Right Peak
1,B1,27%
2,B2,27%
3,B3,26%
4,B4,27%

# Test: Experiment 6-1: screening of rhamnosidases for derhamnosylation of saponins in treated bark extract (2%), QS-17 2296 to QS-18 2150 (PAR %)
# Type: biochemical, Quillaja saponaria
# Details: TBE 2%, pH 7.5, 30 degC, 18 h; TIC peak area ratio percent of rhamnosylated starting saponin to derhamnosylated product, LCMS/MS; negative controls 4.876, 5.225
row,Molecule,QS-17 (PAR %)
1,B1,0.245%
2,B2,0.315%
3,B3,0.324%
4,B4,0.492%

# Test: Experiment 6-1: screening of rhamnosidases for derhamnosylation of saponins in treated bark extract (2%), QS-17 2310 to QS-18 2164 (PAR %)
# Type: biochemical, Quillaja saponaria
# Details: TBE 2%, pH 7.5, 30 degC, 18 h; TIC peak area ratio percent, LCMS/MS; negative controls 3.061, 2.429
row,Molecule,Peak57 (PAR %)
1,B1,0.029%
2,B2,0.000%
3,B3,0.053%
4,B4,0.000%

# Test: Experiment 6-2: screening of rhamnosidases for derhamnosylation of saponins in treated bark extract (25%), relative % of Left, Middle and Right Peak by UV HPLC
# Type: biochemical, Quillaja saponaria
# Details: TBE 25%, pH 7.4, 19.5 h, mainly QS-17 family, negative control 24%
row,Molecule,Left Peak
1,B1,13%
2,B2,14%
3,B3,18%
4,B4,16%

# Same assay, conditions: TBE 25%, pH 7.4, 19.5 h, mainly QS-18 and desglucosyl-QS-17 family, negative control 50%
row,Molecule,Middle Peak
1,B1,59%
2,B2,58%
3,B3,55%
4,B4,57%

# Same assay, conditions: TBE 25%, pH 7.4, 19.5 h, mainly QS-21 family, negative control 26%
row,Molecule,Right Peak
1,B1,28%
2,B2,28%
3,B3,27%
4,B4,27%

# Test: Experiment 6-1: specificity of rhamnosidases towards other rhamnose residues (C3 saccharide rhamnose, C28 saccharide rhamnose)
# Type: biochemical, Quillaja saponaria
# Details: TBE 2%, pH 7.5, 30 degC, 18 h; LCMS/MS; negative controls 0.18, 0.17
row,Molecule,ratio PP/QS-21
1,B1,0.19
2,B2,0.18
3,B3,0.19
4,B4,0.18
